Source: patent US20250051455A1 (Hoffmann-La Roche, published 2025)

What was measured:
[1] = molecular target: T1, human HLA-G expressed on cells (JEG3 natural; SKOV3 HLA-G+ and PA-TU-8902 HLA-G+ transfectants) (human); assay: flow cytometry, JEG3 cells pre-incubated with antibody (40 µg/ml final); competitor ILT2-Fc chimera
T1 construct: On cells HLA-G stands in an MHC class I complex with beta-2 microglobulin and peptide; these are not specified; also called cell surface HLA-G; HLAG on JEG-3 cells
Method: For analysis, JEG3 cells (ATCC HTB36) were stained with ILT2-Fc fusion proteins (control=no inhibition) with or without pre-incubation with different anti-HLA-G antibodies. For the pre-incubation with anti-HLA-G antibodies 25 μl/well of the cell suspension was transferred into a polypropylene 96-Well V-bottom plate and prechilled in the at 4° C. for 10 min. Anti HLA-G antibodies or reference antibodies (G233, MEM-G/9 or 87G) were diluted in staining buffer to a 2-fold concentration of 80 μg/ml and 25 μl/well of the antibody solution was added to the prepared cells and incubated for 1 h at 5° C. Cells were washed twice with 200 μl/well staining buffer with centrifugation at 300 g for 3 min and finally resuspended in 25 μl/well staining buffer.
The detection of human ILT2-Fc Chimera protein (RD #2017-T2-050) to a) JEG3 cells pre-incubated anti HLA-G mAb or b) untreated JEG3 cells as reference was determined as follows: Briefly, the ILT2-Fc or control human IgG (Jackson-Immuno-Research #009-000-003) were diluted in staining buffer to a 2-fold concentration of 20 μg/ml (ILT2) and 25 μl/well of the ILT2-Fc protein solution was added to the prepared cells and incubated for 2 h at 5° C. Cells were again washed twice with 200 μl/well staining buffer the human ILT2-Fcprotein was detected with fluorescent labeled anti human IgG Fc-gamma specific antibody (F(ab′)₂ Fragment Goat Anti-Human IgG, Fcγ fragment specific-FITC, Jackson-Immuno-Research #109-096-008) at a dilution of 10 μg/ml in staining buffer. Cell pellets were resuspended in 50 μl/well detection antibody. After a 1-hour incubation at 5° C. cells were washed twice with staining buffer, resuspended in 70 μl and measured at a FACS Canto II to determine ILT2 binding to JEG 3 cells.

[2] = molecular target: T2, recombinant soluble human HLA-G β2M MHC class I complex, trimer (human); assay: ELISA, HLA-G trimer coated at random on plate
T2 construct: Non-biotinylated; also called HLA-G Trimer; trimeric HLA-G
Method: (§1) The above table summarizes the binding of different rat anti-human HLA-G monoclonal antibodies, derived from wt protein IMS. Shown are the relative EC50 values [ng/ml] of the respective binding to rec. wt monomeric, dimeric and trimeric HLA-G proteins as assessed by ELISA. The ELISA was set up by coating the biotinylated wt HLA-G antigen to strepdavidin plates. After incubation and washing steps, the respective antibodies were bound in a concentration range from 10-0 μg in 1:2 dilution steps. Detection of bound antibodies was carried out by anti-Fc-antibody-POD conjugates. EC50 values were determined from the resulting binding curves at the antibody concentrations generating the half-maximal signal. In case of the non-biotinylated HLA-G dimer and trimer antigens, immobilization was carried out by random coating on assay plates.

[3] = molecular target: T3, recombinant soluble human HLA-G β2M MHC class I complex, dimer (human); assay: ELISA, HLA-G dimer coated at random on plate
T3 construct: Non-biotinylated; also called HLA-G Dimer; dimeric HLA-G
Method: as §1

[4] = molecular target: T3, recombinant soluble human HLA-G β2M MHC …; assay: competition ELISA, one antibody concentration; competitor coated ILT4-Fc
Method: (§2) The ELISA was set up by coating the Fc tagged ILT2 and ILT4 respectively to Maxisorp microtiter plates. After incubation and washing steps, the respective antibodies were added at a concentration of 100 nM. Soluble His tagged monomeric, dimeric or trimeric HLA-G was added to the wells. After incubation and washing steps, detection of bound receptor was carried out by anti-His-antibody-POD conjugates.
(§3) The above tables summarize the blocking of interaction between rec. HLA-G proteins (monomer and oligomers) to its receptors ILT2 and ILT4 by the described HLAG antibodies at a concentration of 110 nM (*HLAG-0090 was tested at a concentration of 44 nM) as assessed by ELISA. Shown are the % inhibitions of the HLA-G/receptor interaction (for ILT2 and ILT4). The less pronounced ILT4 inhibition depends on the major β2M dependent interaction of this receptor.

[5] = molecular target: T2, recombinant soluble human HLA-G β2M MHC …; assay: as above
Method: as §2, §3

[6] = molecular target: T4, recombinant soluble human HLA-G β2M MHC class I complex, monomer (human); assay: as above
T4 construct: His tagged; biotinylated where coated on streptavidin plates, non-biotinylated in SPR; also called HLA-G-0003; wt HLA-G (monomer)
Method: as §2, §3

Row | Binder | Inhibition of ILT2 binding to Jeg3 cells [1] | EC50 [2] | EC50 [3] | % inhibition of ILT4 binding [4] | % inhibition of ILT4 binding [5] | % inhibition of ILT4 binding [6]
1 | HLA-G-0090 (antibody, V domains shown, Human antibody from humanized OmniRat (OMT) rats) VH: QVQLQQSGPGLLKPSQTLSLTCAISGDSVSSNRAAWNWIRQSPSRGLEWLGRTYYRSKWYNDYAVSVQGRITLIPDTSKNQFSLRLNSVTPEDTAVYYCASVRAVAPFDYWGQGVLVTVSS VL: not shown | 91.8% | – | – | – | – | –
2 | HLA-G-0031 (antibody, V domains shown, Rat monoclonal antibody obtained from CD rats) VH: QVKLMQSGAALVKPGTSVKMSCNASGYTFTDYWVSWVKQSHGKRLEWVGEISPNSGASNFDENFKDKATLTVDKSTSTAYMELSRLTSEDSAIYYCTRSSHGSFRWFAYWGQGTLVTVSS VL: AIVLNQSPSSIVASQGEKVTITCRASSSVSSNHLHWYQQKPGAFPKFVIYSTSQRASGIPSRFSGSGSGTSYSFTISRVEAEDVATYYCQQGSSNPYTFGAGTKLELK | 95.1% | 1.86 nM | 1.87 nM | 54% | 68% | 17%
3 | HLA-G-0039 (antibody, V domains shown, Human antibody from humanized OmniRat (OMT) rats) VH: EVQLLESGGGLVQPGGSLRLSCAASGFTFSSYAMNWVRQAPGKGLEWVSVISGSGVSTYYADSVKGRFTISRDNSRNTLSLQMNSLRAEDTAVYYCAKDGSYNYGYGDYFDYWGQGTLVTVSS VL: not shown | -72.9% | 5.29 nM | 4.1 nM | -105% | -43% | -224%
4 | HLA-G-0041 (antibody, V domains shown, Human antibody from humanized OmniRat (OMT) rats) VH: EVQLLESGGGLVQPGGSLRLSCAASGFTFSTYGMSWVRQAPGKGLEWVSVISGGGVSTYYADSVKGRFTISRDNSKNTLYLQMNRLRAEDTAVYYCAKDGSYNYGYGDYFDYWGQGTLVTVSS VL: not shown | -76.7% | 4.87 nM | 5.31 nM | -113% | -39% | -184%
